Here are results for one substance from patent publication US20100021456A1.

Test [1] concerns the target IL-17RA receptor (IL-17 receptor A) on RA synoviocytes (human) (UniProt Q96F46). Briefly: cell-based or functional assay.
In test [2] the target is IL-17RC receptor (IL-17 receptor C) on RA synoviocytes (human) (UniProt Q8NAC3). The experiment in a line: cell-based or functional assay.
Chain of UniProt Q8NAC3 (Q8NAC3 21-791): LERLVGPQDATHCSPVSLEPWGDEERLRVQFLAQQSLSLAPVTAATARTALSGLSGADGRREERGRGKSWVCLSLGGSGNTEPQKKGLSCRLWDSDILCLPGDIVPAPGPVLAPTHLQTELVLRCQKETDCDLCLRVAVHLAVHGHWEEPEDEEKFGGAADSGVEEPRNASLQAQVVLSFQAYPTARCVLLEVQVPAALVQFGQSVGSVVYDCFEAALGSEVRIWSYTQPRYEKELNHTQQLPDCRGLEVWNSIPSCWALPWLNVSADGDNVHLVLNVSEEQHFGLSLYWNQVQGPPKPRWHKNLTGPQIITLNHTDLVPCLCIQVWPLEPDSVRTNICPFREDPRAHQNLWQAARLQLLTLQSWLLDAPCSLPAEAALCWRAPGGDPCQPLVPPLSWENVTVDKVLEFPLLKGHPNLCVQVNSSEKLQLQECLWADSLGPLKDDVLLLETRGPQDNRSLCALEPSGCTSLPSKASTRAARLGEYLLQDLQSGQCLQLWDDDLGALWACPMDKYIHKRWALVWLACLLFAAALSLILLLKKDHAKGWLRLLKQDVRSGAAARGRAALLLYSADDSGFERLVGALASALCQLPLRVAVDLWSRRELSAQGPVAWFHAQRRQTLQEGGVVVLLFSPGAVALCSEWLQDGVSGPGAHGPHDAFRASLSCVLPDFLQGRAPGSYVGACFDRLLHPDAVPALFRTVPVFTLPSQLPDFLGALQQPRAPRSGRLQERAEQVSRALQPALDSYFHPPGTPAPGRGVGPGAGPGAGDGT

With “recombinant human IL-17A (R&D Systems) (from UniProt Q16552 24-155) (ligand)”, the reduction in secreted IL-6 induced by IL-17A in the presence of TNF-α, after simultaneous IL-17RA and IL-17RC iRNAs in test [1] and in test [2] was 20% in each case.
